# Assay results from patent US9012617.
# Experiments:
# EphA4 = test: cell-based or functional assay
# EphB2 = test: cell-based or functional assay
Substance,One phase association Tau (GPhosEphA ratio fluorescence after Ephrin addition) (EphA4),One phase association Tau (GPhosEphB ratio fluorescence after Ephrin addition) (EphB2)
pre-clustered EphrinA1-FC (Fc fusion),9.6,–
pre-clustered EphrinB2-FC (Fc fusion),–,9.78
